Publication PMC3808355

Tested on: ProQ (Escherichia coli (BW25113-derived; ASKA pCA24N clone or pMCSG7 clone))
Assay: tryptophan fluorescence titration
Settings: 20 nM ProQ, excitation 295 nm, emission 355 nm, buffer, salt, pH and temperature not in the material

Row | Substance | Kd [nM]
1 | rpoS mRNA | 19.5
2 | proP P2 mRNA | 11.6
3 | proP P1 mRNA | 17
